The values below come from publication PMC4136841, “Is Thymidine Glycol Containing DNA a Substrate of E. coli DNA Mismatch Repair System?”.

Where a chain is given by its changes, count along the chain named.

What is called Kd is the free concentration of one partner at which half of the binding sites on the other are occupied at equilibrium, for simple one-to-one binding.

For the data set, the target named is T1, MutS (Escherichia coli, UniProt P23909 1-853).
T1 sequence: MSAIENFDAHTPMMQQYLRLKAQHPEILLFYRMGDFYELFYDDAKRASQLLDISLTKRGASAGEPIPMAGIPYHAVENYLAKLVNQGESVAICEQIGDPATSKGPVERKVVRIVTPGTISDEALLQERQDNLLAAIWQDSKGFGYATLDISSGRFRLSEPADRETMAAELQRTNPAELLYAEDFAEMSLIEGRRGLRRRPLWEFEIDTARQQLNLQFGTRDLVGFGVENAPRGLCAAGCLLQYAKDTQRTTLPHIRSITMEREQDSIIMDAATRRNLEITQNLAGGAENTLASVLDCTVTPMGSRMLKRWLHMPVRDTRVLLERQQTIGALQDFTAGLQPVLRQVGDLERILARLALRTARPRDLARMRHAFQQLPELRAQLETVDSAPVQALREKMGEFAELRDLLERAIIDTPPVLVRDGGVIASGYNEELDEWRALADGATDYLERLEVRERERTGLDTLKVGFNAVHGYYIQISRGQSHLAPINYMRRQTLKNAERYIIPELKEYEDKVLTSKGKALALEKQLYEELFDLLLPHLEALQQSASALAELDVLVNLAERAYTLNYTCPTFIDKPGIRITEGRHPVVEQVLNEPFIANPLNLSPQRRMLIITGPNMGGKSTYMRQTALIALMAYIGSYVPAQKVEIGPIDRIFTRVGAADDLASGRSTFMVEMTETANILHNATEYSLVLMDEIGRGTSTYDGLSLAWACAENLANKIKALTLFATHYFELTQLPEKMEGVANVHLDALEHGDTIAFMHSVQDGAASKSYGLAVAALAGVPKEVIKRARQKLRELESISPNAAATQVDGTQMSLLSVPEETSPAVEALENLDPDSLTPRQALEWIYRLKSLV
The data set can be described thus: EMSA (Scatchard); 1 mM ADP, 5 mM Mg2+; EMSA: 20 mM HEPES pH 8.0, 125 mM KCl, 1 mM ADP, 5 mM MgCl2, 1 mg/ml BSA, 9% glycerol, 37 C 20 min (gel at 4 C); fluorescence: 25 mM Tris-HCl pH 7.5, 125 mM KCl, 5 mM MgCl2, 1 mM ADP, 20 C. The note with it: protein: recombinant, tags: His-tag (Ni-NTA purified), chain copies: 2, label: 5'-32P, blunt. In general terms: In EMSA bound probe runs differently from free probe, usually more slowly.

B1: duplex III (G/Tg) (dsDNA)
DNA 1: CAAGCCTATGCCCTCAGCACCCAGGGTGCC
DNA 2: GGCACCTTGGGTGCTGAGGGCATAGGCTTG
modifications: thymidine glycol (5R,6S) at T7 of strand 2
Consider B1, for which the Kd (strand 1 G24 : strand 2 Tg7) was 44 ± 2.3 nM.

B2: duplex I (G/C) (dsDNA)
DNA 1: B1 DNA 1
DNA 2: B1 DNA 2 with T7C
Regarding B2, the Kd stood at 32 ± 3.3 nM.

B3: duplex IV (A/Tg) (dsDNA)
DNA 1: B1 DNA 1 with G24A
DNA 2: B1 DNA 2
modifications: thymidine glycol (5R,6S) at T7 of strand 2
Consider B3, for which, where the note is “strand 1 A24 : strand 2 Tg7”, the Kd was 25 ± 3 nM.

B4: duplex II (G/T) (dsDNA)
DNA 1: B1 DNA 1
DNA 2: B1 DNA 2
As for B4, the Kd (G/T mismatch strand 1 G24 : strand 2 T7) worked out at 7 ± 1.5 nM.
